# Measurements published in ChEMBL document CHEMBL4038281, “Competitive protein tyrosine phosphatase 1B (PTP1B) inhibitors, prenylated caged xanthones from Garcinia hanburyi and their inhibitory mechanism” (Bioorg Med Chem, 2017).
# B1: Tyrosine-protein phosphatase non-receptor type 1 (Homo sapiens), P18031 (protein)
# chain: MEMEKEFEQIDKSGSWAAIYQDIRHEASDFPCRVAKLPKNKNRNRYRDVSPFDHSRIKLHQEDNDYINASLIKMEEAQRSYILTQGPLPNTCGHFWEMVWEQKSRGVVMLNRVMEKGSLKCAQYWPQKEEKEMIFEDTNLKLTLISEDIKSYYTVRQLELENLTTQETREILHFHYTTWPDFGVPESPASFLNFLFKVRESGSLSPEHGPVVVHCSAGIGRSGTFCLADTCLLLMDKRKDPSSVDIKKVLLEMRKFRMGLIQTADQLRFSYLAVIEGAKFIMGDSSVQDQWKELSHEDLEPPPEHIPPPPRPPKRILEPHNGKCREFFPNHQWVKEETQEDKDCPIKEEKGSPLNAAPYGIESMSQDTEVRSRVVGGSLRGAQAASPAKGEPSLPEKDEDHALSYWKPFLVNMCVATVLTAGAYLCYRFLFNSNT
# Key:
# [1] = substrate: CC(C)=CCC[C@]1(C)C=Cc2c(O)c3c(c(CC=C(C)C)c2O1)O[C@]12C(=C[C@@H]4C[C@H]1C(C)(C)O[C@@]2(C/C=C(/C)C(=O)O)C4=O)C3=O; details: Homo sapiens; 49.6 uM
# Description: Competitive inhibition of recombinant human PTP1B (1 to 322 residues) expressed in Escherichia coli assessed as substrate Km at 49.6 uM using pNPP as substrate by Lineweaver-Burk plot analysis
# [2] = substrate: CC(C)=CCC[C@]1(C)C=Cc2c(O)c3c(c(CC=C(C)C)c2O1)O[C@]12C(=C[C@@H]4C[C@H]1C(C)(C)O[C@@]2(C/C=C(/C)C(=O)O)C4=O)C3=O; details: Homo sapiens; 49.6 uM; remark: listed apart in the source
# [3] = substrate: CC(C)=CCC[C@]1(C)C=Cc2c(O)c3c(c(CC=C(C)C)c2O1)O[C@]12C(=C[C@@H]4C[C@H]1C(C)(C)O[C@@]2(C/C=C(/C)C(=O)O)C4=O)C3=O; details: Homo sapiens; 12.4 uM
# [4] = substrate: CC(C)=CCC[C@]1(C)C=Cc2c(O)c3c(c(CC=C(C)C)c2O1)O[C@]12C(=C[C@@H]4C[C@H]1C(C)(C)O[C@@]2(C/C=C(/C)C(=O)O)C4=O)C3=O; details: Homo sapiens; 24.8 uM
# Description: Competitive inhibition of recombinant human PTP1B (1 to 322 residues) expressed in Escherichia coli assessed as substrate Km at 24.8 uM using pNPP as substrate by Lineweaver-Burk plot analysis
# [5] = substrate: CC(C)=CCC[C@]1(C)C=Cc2c(O)c3c(c(CC=C(C)C)c2O1)O[C@]12C(=C[C@@H]4C[C@H]1C(C)(C)O[C@@]2(C/C=C(/C)C(=O)O)C4=O)C3=O; details: Homo sapiens; 24.8 uM; remark: listed apart in the source
# [6] = substrate: CC(C)=CCC[C@]1(C)C=Cc2c(O)c3c(c(CC=C(C)C)c2O1)O[C@]12C(=C[C@@H]4C[C@H]1C(C)(C)O[C@@]2(C/C=C(/C)C(=O)O)C4=O)C3=O; details: Homo sapiens; 12.4 uM; remark: listed apart in the source
# Description: Competitive inhibition of recombinant human PTP1B (1 to 322 residues) expressed in Escherichia coli assessed as substrate Km at 12.4 uM using pNPP as substrate by Lineweaver-Burk plot analysis
protein,measurement,setting,value
B1,Km,[1],12.7 mM
same,Vmax (optical density/minute),[2],13.7
same,Vmax (optical density/minute),[3],12.6
same,Km,[4],6.84 mM
same,Vmax (optical density/minute),[5],12.9
same,Km,[6],4.46 mM
